Test results as given in PMC3794157, “Structure of the Fibrillin-1 N-Terminal Domains Suggests that Heparan Sulfate Regulates the Early Stages of Microfibril Assembly” (Structure(London, England:1993), 2013).

Legend:
Experiment in all cases: pull-down; biotinylated cbEGF41-43 or control cbEGF32-34 immobilised on M270 streptavidin-coated magnetic beads; 15 ug His-tagged protein in 50 mM Tris-HCl pH 7.4, 150 mM NaCl, 2 mM CaCl2, 0.05% Tween-20, 1% BSA for 1 hr; western blot with anti-RGS-His-HRP
Details in all cases: both partners purified
[1] = target: T1, human fibrillin-1 FUN-EGF3 fragment (residues R45-E178) (human, UniProt P35555 45-178)
T1 construct: human fibrillin-1, fibrillin unique N-terminal (FUN) domain and EGF1-EGF3, residues R45-E178; The vector pQE-30 is named; also called wild-type (WT) FUN-EGF3; fibrillin N-terminal fragment
T1 sequence (P35555 45-178): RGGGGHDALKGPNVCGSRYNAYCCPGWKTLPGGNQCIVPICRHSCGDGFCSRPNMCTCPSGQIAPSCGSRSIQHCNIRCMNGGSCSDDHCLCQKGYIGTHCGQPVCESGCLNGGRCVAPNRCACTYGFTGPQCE

S88A FUN-EGF3 = target: T2, S88A FUN-EGF3 (human, UniProt P35555 45-178, S88A)
T2 construct: human fibrillin-1 FUN-EGF3, residues R45-E178, with S88 substituted with alanine
T2 sequence (P35555 45-178 S88A): as the sequence (P35555 45-178) above, with S44A counted along it

[2] = target: T3, FUN-EGF3 mutant lacking the 63Y-N-A-Y66 motif in the FUN domain (human, UniProt P35555 45-178, 63Y-N-A-Y66 deleted)
T3 construct: human fibrillin-1 FUN-EGF3, residues R45-E178, with 63Y-N-A-Y66 deleted; also called YNAY FUN-EGF3
T3 sequence (P35555 other isoform, or with tags, fused parts or gaps 63Y-N-A-Y66 deleted | 63Y-N-A-Y66 deleted | mutant): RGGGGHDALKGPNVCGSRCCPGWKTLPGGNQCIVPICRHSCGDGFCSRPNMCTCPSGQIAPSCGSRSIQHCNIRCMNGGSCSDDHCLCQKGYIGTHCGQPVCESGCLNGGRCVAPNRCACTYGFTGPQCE

FUN-EGF3 (G5) mutant = target: T4, FUN-EGF3 (G5) mutant (human, UniProt P35555 45-178, 113S-R-S-I-Q117 replaced with five glycines)
T4 construct: human fibrillin-1 FUN-EGF3, residues R45-E178, with 113S-R-S-I-Q117 of the EGF1-EGF2 linker replaced with five glycines; also called G5 FUN-EGF3
T4 sequence (P35555 other isoform, or with tags, fused parts or gaps with the stated changes): as the sequence (P35555 45-178) above, with S69G, R70G, S71G, I72G, Q73G counted along it

R62A FUN-EGF3 = target: T5, R62A FUN-EGF3 (human, UniProt P35555 45-178, R62A)
T5 construct: human fibrillin-1 FUN-EGF3, residues R45-E178, with R62A
T5 sequence (P35555 45-178 R62A): as the sequence (P35555 45-178) above, with R18A counted along it

Measured: binding result

B1: human fibrillin-1 cbEGF41-43 fragment (residues D2567-V2687), biotinylated, C-terminal BirA tag (domain or fragment)
chain: not shown
modifications: biotin, site-specific, on the BirA tag
notes: Held on streptavidin-coated magnetic beads by its biotin; also called fibrillin C-terminal fragment; not shown: BirA tag, C-terminal, kept
binds: all assays above
